Substrate: Nc1ncnc2c1ncn2[C@@H]1O[C@H](CO)[C@@H](O)[C@H]1O
Assay: Adenosine kinase inhibition (filter binding assay)
Format: biochemical, human
Conditions: other: adenosine as substrate; 37.0 °C

B1: WI-L2 adenosine kinase (Homo sapiens) (protein)
chain: MAAAEEEPKPKKLKVEAPQALRENILFGMGNPLLDISAVVDKDFLDKYSLKPNDQILAEDKHKELFDELVKKFKVEYHAGGSTQNSIKVAQWMIQQPHKAATFFGCIGIDKFGEILKRKAAEAHVDAHYYEQNEQPTGTCAACITGDNRSLIANLAAANCYKKEKHLDLEKNWMLVEKARVCYIAGFFLTVSPESVLKVAHHASENNRIFTLNLSAPFISQFYKESLMKVMPYVDILFGNETEAATFAREQGFETKDIKEIAKKTQALPKMNSKRQRIVIFTQGRDDTIMATESEVTAFAVLDQDQKEIIDTNGAGDAFVGGFLSQLVSDKPLTECIRAGHYAASIIIRRTGCTFPEKPDFH
notes: added to the cell-free WI-L2 lysate to give 5 μM final assay concentration; endogenous in cells; host or cells: WI-L2 B lymphoblast cells (cell-free lysate)
Km: 0.9 µM

From US5041542A, “Substituted pyrimido[5,4-d]pyrimidine nucleosides” (Nucleic Acid Research Institute, priority 1988, dated 1991)
